The values below come from WO2009055074A2 (dated 2009).

Residue numbers refer to the chain shown, from its start.

B1: S1R3B2_BMV_1H5 (scFv, V domains shown)
VH: EVQLVQSGGGLVRPGGSLRLSCAASGFSFSDYYMTWIRQIPGKGLEWVAVIWNDGSDRYYADSVKGRFTISRDNSKNTLFLQMSSLRDEDTALYYCVRGGPTASSGFDYWGRGTLVTVSS
VL: SSELTQPASVSGSPGQSITISCTGTSSDVGGYNYVSWYLQHPGKAPKLMIYEGSKRPSGVSNRFSGSKSGNTASLTISGLQAEDEADYYCSSYTTRSTRVFGGGTKLTVLG
notes: also called Her2_S1R3B2_BMV_1H5
B2: S1R3C1_CS_1A6 (scFv, V domains shown)
VH: EVQLVQSGAEVKKPGESLKISCKGFGYNFRSAWIGWVRQMPGKGLEWMGVIYPGDSDVRYSPSFQGQVTISADKSISTAYLQWSSLKASDTAMYYCTRPVGQWVDSDYWGKGTLVTVSS
VL: QSVLTQPPSASGTPGQRVTISCSGSSSNIGTNTVNWYQQLPGTAPKLLIYTSNQRPSGVPARFSASNSGTSASLAISGLRSEDEADYYCAAWDDKLSGAVFGGGTKLTVLG
notes: also called Her2_S1R3C1_CS_1A6
B3: S1R3B2_DP47_1E10 (scFv, V domains shown)
VH: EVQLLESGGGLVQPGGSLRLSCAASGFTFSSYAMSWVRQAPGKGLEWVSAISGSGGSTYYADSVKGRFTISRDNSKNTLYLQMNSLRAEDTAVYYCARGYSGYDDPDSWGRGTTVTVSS
VL: HVILTQPPSTSGTPGQTVTISCSGSSSNIGSHYVYWYQQLPGTAPKLLIYRNNQRPSGVPDRFSGSKSGTSASLAISGLRSEDETDYYCAAWDDSLSGRVFGTGTKLTVLG
notes: also called Her2_S1R3B2_DP47_1E10
B4: S1R2C_CS_1H12 (scFv, V domains shown)
VH: EVQLVETGGGLVQPGGSLRLSCAASGFTFSSYGMNWVRQAPGKGLEWVSYISSSGNTIFYADSVKGRFTISRDSAKNSVSLQMNSLRDEDTAVYYCASYYSYYYGMDAWGQGTMVTV
VL: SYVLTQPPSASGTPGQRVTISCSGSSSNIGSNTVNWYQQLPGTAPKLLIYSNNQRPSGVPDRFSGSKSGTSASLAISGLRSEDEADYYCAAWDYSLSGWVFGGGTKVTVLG
B5: S1R3B2_BMV_1G2 (scFv, V domains shown)
VH: QVQLVQSGAEVKKPGSSVKVSCKASGYTFTSYGISWVRQAPGQGLEWMGWISAYNGNTNYAQKLQGRVTMTTDTSTSTAYMELRSLRSDDTAVYYCARVPGVSGSYPDYYYMDVWGKGTLVTVSS
VL: DIQMTQSPSTLSASIGDRVTITCRASEGIYHWLAWYQQKPGKAPKLLIYKASSLASGAPSRFSGSGSGTDFTLTISSLQPDDFATYYCQQYSNYPLTFGGGTKLEIKR
notes: also called Her2_S1R3B2_BMV_1G2
B6: S1R2A_CS_1D3 (scFv, V domains shown)
VH: EVQLVQSGAEVKKPGASVKVSCKASGYSFTAFYIHWVRQAPGQGLEYLGWIDPNTGATKYAQRFQGRVIMTWDTSITTATMELSRLTSDDSAVYYCVRDLREWGYELSVEYWGRGTLVTVSS
VL: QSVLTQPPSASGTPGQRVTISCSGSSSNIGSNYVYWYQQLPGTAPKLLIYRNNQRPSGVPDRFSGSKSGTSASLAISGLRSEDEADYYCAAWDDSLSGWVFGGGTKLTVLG
B7: S1R3B2_DP47_1E8 (scFv, V domains shown)
VH: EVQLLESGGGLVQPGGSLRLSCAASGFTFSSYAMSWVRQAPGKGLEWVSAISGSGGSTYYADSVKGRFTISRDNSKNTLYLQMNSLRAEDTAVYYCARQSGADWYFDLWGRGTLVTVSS
VL: QAVLTQPSAVSGAPGQRVTISCTGTSSNIGTNYLVHWYQQRPGTAPQLLVSGNNTRPSGVTDRFSVSKSATSASLAITGLQAEDEADYYCQTYDINLRVWVFGGGTKVTVLG
notes: also called Her2_S1R3B2_DP47_1E8
B8: S1R3C1_CS_1D3 (scFv, V domains shown)
VH: QVQLQESGPGLVKPSQTLSLTCGISGDSVSSNSAAWNWIRQSPTRGLEWLGRTYYRSSWYHNYAPSMNSRLTIIADTSKNQFSLQLNSVTPEDTAVYYCASGWAFDVWGRGTLVTVSS
VL: QSVLTQPPSASGSPGQSVTISCTGTSSDVGAYDFVSWYQQHPGKAPKLMIYEVNKRPSGVPDRFSGSKSGNTASLTVSGLQAEDEADYYCSSYAGSKNLLFGGGTKLTVLG
notes: also called Her2_S1R3C1_CS_1D3
B9: S1R3B1_BMV_1G11 (scFv, V domains shown)
VH: QVQLVQSGGGLVQPGGSLRLSCAASGFTFSTYAMSWARQAPGKGLEWVSSISGDGGRILDADSAKGRFTISRDNSKNTLYLQMNGLRVEDTALYYCARADGNYWGRGTMVTVSS
VL: B1 VL with S1Q, E3V, L39Q
notes: scFv (one chain), soluble from the bacterial periplasm in the screening; also called Her2_S1R3B1_BMV_1G11
B10: S1R3A1_BMV_1G4 (scFv, V domains shown)
VH: QVQLVESGAEVKKPGASVKVSCKASGYTFTSYDINWVRQAPGQRLEWMGWINAGNGNTKYSQKFQGRVTITRDTSASTAYMELRSLRSDDTAVYYCARGRSYGHPYYFDYWGQGTLVTVSS
VL: B1 VL with S1Q, E3V, L39Q
notes: scFv (one chain), soluble from the bacterial periplasm in the screening; also called Her2_S1R3A1_BMV_1G4
B11: S1R3B1_BMV_1A1 (scFv, V domains shown)
VH: EVQLVQSGAEVKEPGASVKVSCKASGYDFSNYGFSWVRQAPGQGLEWMGWISSYNGYTNYAQRLQGRVTMTTDTSTSTAYMELRSLRSDDTAVYYCARDRGLGNWYFDLWGQGTLVTVSS
VL: B1 VL with S1Q, E3V, L39Q
notes: scFv (one chain), soluble from the bacterial periplasm in the screening; also called Her2_S1R3B1_BMV_1A1
B12: S1R3B1_BMV_1H11 (scFv, V domains shown)
VH: EVQLVQSGGGLVKPGGSLRLSCAASGFTFSSYGMHWVRQAPGKGLEWVAGIFYDGGNKYYADSVKGRFTISRDNSKNTLYLQMNSLRAEDTAVYYCARDRGYYYMDVWGKGTTVTVSS
VL: QSVLTQPPSVSGAPGQRVTISCTGRSSNIGAGHDVHWYQQLPGTAPKLLIYGDSNRPSGVPDRFSGSRSGTSASLAITGLQAEDEADYYCQSYDSSLRGSVFGGGTKVTVLG
notes: scFv (one chain), soluble from the bacterial periplasm in the screening; also called Her2_S1R3B1_BMV_1H11
B13: S1R3C1_DP47_1H1 (scFv, V domains shown)
VH: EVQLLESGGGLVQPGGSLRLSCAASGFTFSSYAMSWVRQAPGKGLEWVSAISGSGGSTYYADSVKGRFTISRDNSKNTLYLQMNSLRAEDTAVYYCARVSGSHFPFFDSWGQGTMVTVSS
VL: QSVLTQPPSVSVAPGQTARITCGGDKIGHKSVHWYQQKPGQAPVLLVYDDRKRPSGIPERFSGSNSGNTATLTISRVEAGDEAAYHCQVWDRSSDPYVFGTGTKVTVLG
notes: scFv (one chain), soluble from the bacterial periplasm in the screening; also called Her2_S1R3C1_DP47_1H1
B14: S1R3B1_BMV_1A10 (scFv, V domains shown)
VH: QMQLVQSGGGVVQPGRSLRLSCAASGFTFSSYGMHWVRQAPGKGLEWVAVISYDGSIKYYADSVKGRFTISRDNSKNTLYLQMNSLRAEDTGVYYCSKDRYSSGWYSSDAFDIWGRGTMVTVSS
VL: SSELTQDPAVSVALGQTVRITCQGDSLRSYYASWYQQKPGQAPVLVIYGKNNRPSGIPDRFSGSSSGNTASLTITGAQAEDEADYYCHSRDSSGNHVLFGGGTKLTVLG
notes: scFv (one chain), soluble from the bacterial periplasm in the screening; also called Her2_S1R3B1_BMV_1A10
B15: S1R3A1_CS_1B12 (scFv, V domains shown)
VH: QVQLVQSGAEVKKPGASVKVSCQASGYTFSGHYMHLVRQAPGQGLEWMGWIHPTSGGTTYAQKFQGRVVMTRDTSISTAYMELSRLTSDDTAVYYCARMSQNYDAFDIWGQGTMVTVSS
VL: QAVLTQPSSVSGAPGQRVTISCTGSSSNIGAGYDVNWYQQFPGTAPKIIVYGDRPSGAPDRFSGSKSGTSASLAITGLRAEDEADYYCQSWDSRLSSYVFGTGTKVTVLG
notes: scFv (one chain), soluble from the bacterial periplasm in the screening; also called Her2_S1R3A1_CS_1B12
B16: S1R3A1_DP47_1A6 (scFv, V domains shown)
VH: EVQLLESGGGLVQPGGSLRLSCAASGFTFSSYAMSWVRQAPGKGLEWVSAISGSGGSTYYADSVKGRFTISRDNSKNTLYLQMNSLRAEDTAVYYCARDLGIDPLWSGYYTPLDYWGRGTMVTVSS
VL: HVILTQPPSASGTPGQRVTISCSGSSSNIGSNSVSWYQQLPGTAPKLLMYTNNQRPSGVPDRFSGSKSGTSASLAISGLQSEDEADYYCATWDASLNTWVFGGGTKVTVLG
notes: scFv (one chain), soluble from the bacterial periplasm in the screening; also called Her2_S1R3A1_DP47_1A6
B17: S1R3C1_BMV_1H11 (scFv, V domains shown)
VH: GVQLVESGGGLVKPGGSLRLSCAASGFTFSSYNMNWVRQAPGKGLEWVSAISGSGGSTYYADSVTGRFTISRDNSKNTLYLQMNSLRAEDTAVYYCAKDTSGWYGDGMDVWGRGTLVTVSS
VL: B5 VL
notes: scFv (one chain), soluble from the bacterial periplasm in the screening; also called Her2_S1R3C1_BMV_1H11

For one experiment, the target named is T1, extracellular domain (ECD) of Her2 (ErbB2) (human, UniProt P04626 23-652).
T1 construct: Target as named in the sentence on the thirty-one scFvs; also called ECD region of Her2
The experiment is described as follows: three rounds of selection and screening ELISA, scFv on phage. (In an ELISA, binding on a coated surface is turned into a signal by an enzyme label.)
Take B1: the binding result was “binds”.
On the same count and under the same terms, to B2 belongs “binds”; to B3, “binds”; to B4, “binds”.
With B5, the binding result was “binds”.
Still for that read-out and setting: the entry for B6 is “binds”; for B7 it is “binds”; for B8 it is “binds”.

The next experiment has as its target T1, extracellular domain (ECD) of Her2 …. The experiment is described as follows: three rounds of selection and screening ELISA, soluble periplasmic scFv.
In the case of B9, the binding result is recorded as “binds”.
B10: the binding result is given as “binds”.
Still for that read-out and setting: the entry for B11 is “binds”; for B12 it is “binds”; for B13 it is “binds”.
As to B14, the binding result is recorded as “binds”.
With B15, the binding result was “binds”.
Same read-out and setting: to B16 belongs “binds”; to B17, “binds”.
